Measurements from patent US20040018571A1.

Target: T1, recombinant secreted soluble PSCA with a C-terminal 6xHis and MYC tag (human) (UniProt O43653)
T1 sequence (looked up): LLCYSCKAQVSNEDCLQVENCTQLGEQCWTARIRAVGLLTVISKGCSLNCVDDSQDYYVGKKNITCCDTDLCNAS
Test: SPR (BIAcore), recombinant His/MYC-tagged PSCA immobilized at low density (30 RU), mAb in solution

B1: anti-PSCA monoclonal antibody 1G8 (ATCC No. HB-12612) (antibody, from another filing, mouse IgG1, V domains shown)
VH: EVQLQQSGAELVRSGASVKLSCTASGFNIKDYYIHWVNQRPDQGLEWIGWIDPENGDTEFVPKFQGKATMTADIFSNTAYLHLSSLTSEDTAVYYCKTGGFWGQGTLVTVSA
VL: QVVLTQSPAIMSASPGEKVTMACSASSSVRFIHWYQQKSGTSPKRWIYDTSKLASGVPTRFSGSGSGTSYSLTISTMEAEDAATYYCQQWSSSPFTFGSGTKLIIK
**Q.** Which Kd does the source give for B1 here?
**A.** Its Kd is 1 nM.

**Q.** And the kon?
**A.** Its kon is 168000 M⁻¹ s⁻¹.
